This passage reports stoichiometry N results from PMC10615762.

The stoichiometry N is the number of molecules, sites or subunits per partner or assembly.

The experiment concerns the target Fusion protein of Nipah virus (F-clamp) (Nipah virus). The experiment is described as follows: SEC.

In turn, Fusion protein of Nipah virus (F-clamp) showed a stoichiometry N of 3.
